Laboratory results from publication PMC3557595 (Journal of molecular biology, 2012).

How the values were obtained:
[1] = biological target: Hs H3.1(1-136)(S88Q/G103H)-His6/H4(1-103) (human, UniProt P68431 1-136; P62805 1-103, S88Q | G103H); experiment: pull-down
[2] = biological target: GS-CENP-A(60-140)-LVPR and H4^Hs(1-103) (human, UniProt P49450 60-140; P62805 1-103); experiment: SEC
[3] = biological target: GS-CENP-A^Hs(60-140)-LVPR and GS-H4^Hs(22-103) (human, UniProt P49450 60-140; P62805 22-103); experiment: SEC

binding result [1]: binds
binding result [2]: binds
binding result [3]: binds
B1: Hs GS-HJURP(2-81) (domain or fragment)
chain: GSLGTLRAMEGEDVEDDQLLQKLRASRRRFQRRMQRLIEKYNQPFEDTPVVQMATLTYETPQGLRIWGGRLIKERNEGEIQD
